Laboratory results: FireProtDB
“And” between values parts separate entries of the source, which are not always exact repeats. Equal entries are not always repeated.

Conditions: Escherichia coli (strain K12), whole UniProt chain shown
[1] = pH 3, Thermal, CD, glycine-HCl 10 mM, NaCl 0.1 M, reversible: yes
[2] = pH 3, Thermal, CD, glycine-HCl 10 mM, reversible: yes
[3] = pH 5.5, Thermal, CD, Sodium acetate 5 mM, KCl 50 mM, reversible: no
[4] = pH 5.5, Thermal, CD, Sodium acetate 20 mM, reversible: yes
[5] = pH 8, 25 °C, GdnHCl, CD, Potassium phosphate 20 mM, KCl 50 mM, reversible: yes
[6] = pH 8, 25 °C, GdnHCl, CD, Potassium phosphate 50 mM, KCl 50 mM, reversible: yes
[7] = pH 8, 25 °C, Urea, CD, Potassium phosphate 20 mM, KCl 50 mM, reversible: yes
[8] = pH 7, 25 °C, Thermal, DSC, tetra-borate 1 mM, reversible: yes(70-95%)
[9] = pH 7, Thermal, CD, tetra-borate 1 mM, reversible: yes(70-95%)
[10] = pH 7, Thermal, DSC, tetra-borate 1 mM, reversible: yes(70-95%)
[11] = pH 7.8, 25 °C, Urea, CD, Potassium phosphate 10 mM, transition: 3
[12] = pH 7.8, 25 °C, Urea, CD, Potassium phosphate 10 mM
[13] = pH 9.3, 25 °C, Thermal, DSC, tetra-borate 1 mM, reversible: yes(70-95%)
[14] = pH 9.3, Thermal, CD, tetra-borate 1 mM, reversible: yes(70-95%)
[15] = pH 9.3, Thermal, DSC, tetra-borate 1 mM, reversible: yes(70-95%)
[16] = pH 7, 25 °C, Thermal, DSC, Potassium phosphate 25 mM, KCl 100 mM, reversible: yes
[17] = pH 7, Thermal, DSC, Potassium phosphate 25 mM, KCl 100 mM, reversible: yes
[18] = pH 7, 27 °C, Urea, Fluorescence, Potassium phosphate 50 mM, transition: 3, reversible: yes

B1: Ribonuclease HI wild type, P0A7Y4 (protein)
chain: MLKQVEIFTDGSCLGNPGPGGYGAILRYRGREKTFSAGYTRTTNNRMELMAAIVALEALKEHCEVILSTDSQYVRQGITQWIHNWKKRGWKTADKKPVKNVDLWQRLDAALGQHQIKWEWVKGHAGHPENERCDELARAAAMNPTLEDTGYQVEV
Tm (pH 3, Thermal, CD, Gly-HCl buffer 10 mM, NaCl 0.1 M, reversible: yes): 49.8 °C | Tm [1]: 50.1 °C | unfolding enthalpy (van 't Hoff) [1]: 113 kcal/mol | Tm [2]: 49.8 °C | unfolding enthalpy (van 't Hoff) [2]: 98.1 kcal/mol | Tm [3]: 66 °C | heat capacity change of unfolding [3]: 2.7 kcal/mol/K | unfolding enthalpy (van 't Hoff) [3]: 120 kcal/mol | Tm [4]: 52 °C | unfolding enthalpy (van 't Hoff) [4]: 89 kcal/mol | Tm (pH 5.5, Thermal, CD, sodium acetate 20 mM, NaCl 0.1 M, reversible: yes): 52 °C | denaturant midpoint (higher = more stable) [5]: 1.6 M | unfolding free energy [5]: 7.2 kcal/mol | denaturant midpoint (higher = more stable) [6]: 1.18 M | unfolding free energy [6]: 3.95 kcal/mol | denaturant midpoint (higher = more stable) [7]: 3.84 M | unfolding free energy [7]: 7.4 kcal/mol | Tm (pH 8, Thermal, CD, Potassium phosphate 20 mM, KCl 50 mM, reversible: yes): 55 °C

B2: Tryptophan synthase alpha chain wild type, P0A877 (protein)
chain: MERYESLFAQLKERKEGAFVPFVTLGDPGIEQSLKIIDTLIEAGADALELGIPFSDPLADGPTIQNATLRAFAAGVTPAQCFEMLALIRQKHPTIPIGLLMYANLVFNKGIDEFYAQCEKVGVDSVLVADVPVEESAPFRQAALRHNVAPIFICPPNADDDLLRQIASYGRGYTYLLSRAGVTGAENRAALPLNHLVAKLKEYNAAPPLQGFGISAPDQVKAAIDAGAAGAISGSAIVKIIEQHINEPEKMLAALKVFVQPMKAATRS
unfolding free energy (pH 7, 25 °C, GdnHCl, CD, Potassium phosphate 0.01 M, reversible: yes): 9.3 kcal/mol | unfolding free energy (pH 7, 25 °C, Thermal, CD, tetra-borate 1 mM, reversible: yes(70-95%)): 6.7 kcal/mol | unfolding enthalpy (calorimetric) [8]: 23.2 kcal/mol | unfolding free energy [8]: 8.4 kcal/mol | unfolding free energy (pH 7, 25.8 °C, GdnHCl, CD, Potassium phosphate 0.01 M, reversible: yes): 8.8 kcal/mol | Tm [9]: 61.2 °C | heat capacity change of unfolding [9]: 2.45 kcal/mol/K | unfolding enthalpy (van 't Hoff) [9]: 19.7 kcal/mol | Tm [10]: 62.4 °C | heat capacity change of unfolding [10]: 2.87 kcal/mol/K | denaturant m value [11]: 2.9 kcal/mol/M and 1.3 kcal/mol/M | unfolding free energy [11]: 7.9 kcal/mol and 5.4 kcal/mol | denaturant m value [12]: 2.23 kcal/mol/M | unfolding free energy [12]: 5.91 kcal/mol | unfolding free energy (pH 9.3, 25 °C, Thermal, CD, tetra-borate 1 mM, reversible: yes(70-95%)): 3.9 kcal/mol | unfolding enthalpy (calorimetric) [13]: 23.2 kcal/mol | unfolding free energy [13]: 5.8 kcal/mol | Tm [14]: 50.4 °C | heat capacity change of unfolding [14]: 2.45 kcal/mol/K | unfolding enthalpy (van 't Hoff) [14]: 19.7 kcal/mol | Tm [15]: 54.3 °C | heat capacity change of unfolding [15]: 2.87 kcal/mol/K

B3: Met repressor wild type, P0A8U6 (protein)
chain: MAEWSGEYISPYAEHGKKSEQVKKITVSIPLKVLKILTDERTRRQVNNLRHATNSELLCEAFLHAFTGQPLPDDADLRKERSDEIPEAAKEIMREMGINPETWEY
heat capacity change of unfolding [16]: 2.13 kcal/mol/K | unfolding free energy [16]: 7.77 kcal/mol | Tm [17]: 53.2 °C | heat capacity change of unfolding [17]: 2.13 kcal/mol/K | unfolding enthalpy (calorimetric) [17]: 121 kcal/mol | unfolding enthalpy (van 't Hoff) [17]: 131 kcal/mol

B4: 3-isopropylmalate dehydrogenase wild type, P30125 (protein)
chain: MSKNYHIAVLPGDGIGPEVMTQALKVLDAVRNRFAMRITTSHYDVGGAAIDNHGQPLPPATVEGCEQADAVLFGSVGGPKWEHLPPDQQPERGALLPLRKHFKLFSNLRPAKLYQGLEAFCPLRADIAANGFDILCVRELTGGIYFGQPKGREGSGQYEKAFDTEVYHRFEIERIARIAFESARKRRHKVTSIDKANVLQSSILWREIVNEIATEYPDVELAHMYIDNATMQLIKDPSQFDVLLCSNLFGDILSDECAMITGSMGMLPSASLNEQGFGLYEPAGGSAPDIAGKNIANPIAQILSLALLLRYSLDADDAACAIERAINRALEEGIRTGDLARGAAAVSTDEMGDIIARYVAEGV
denaturant m value [18]: 5.56 kcal/mol/M and 2.22 kcal/mol/M | unfolding free energy [18]: 14.7 kcal/mol and 17.7 kcal/mol | unfolding enthalpy (van 't Hoff) (pH 7, Thermal, Fluorescence, potassium phosphate 50 mM, DTT 1 mM, transition: 3, reversible: yes): 15.4 kcal/mol and 17.8 kcal/mol
